Measurements published in patent US20020119165A1 (University of Pennsylvania, published 2002).
Ends that are not written are not given here.

Molecular target: T1, HveA(200t) (UniProt Q92956 39-200, limits assumed)
T1 construct: Immobilized on microtiter wells in all ELISAs; also called soluble form of HveA; HVEM; not shown: C-terminal histidine tag
T1 sequence (looked up): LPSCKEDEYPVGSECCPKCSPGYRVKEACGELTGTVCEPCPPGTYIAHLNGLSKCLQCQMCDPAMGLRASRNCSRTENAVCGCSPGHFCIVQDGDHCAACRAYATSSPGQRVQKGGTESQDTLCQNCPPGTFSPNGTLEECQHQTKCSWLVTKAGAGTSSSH
Test: inferred from competition ELISA on immobilized HveA

B1: BP-2 (3, 9 Ala) (peptide)
peptide: GSADGFRVAYMH
modifications: not fully specified (C-terminus)
notes: Linear analog of BP-2 in which the two cysteine residues are replaced by alanine; also called linear form of BP-2
binding result: no binding
